From publication doi:10.1101/2023.03.21.532770 (bioRxiv, 2023) come the findings set out here.

This series concerns the molecule itself. Description: crystal structure.

B1: mouse 2,4-Dienoyl-CoA reductase 1 (Decr1) (enzyme, UniProt Q9CQ62 35-335, looked up)
chain: SKDAPQSKFFQPVLKPMLPPDAFQGKVAFITGGGTGLGKAMTTFLSTLGAQCVIASRNIDVLKATAEEISSKTGNKVHAIRCDVRDPDMVHNTVLELIKVAGHPDVVINNAAGNFISPSERLTPNGWKTITDIVLNGTAYVTLEIGKQLIKAQKGAAFLAITTIYAESGSGFVMPSSSAKSGVEAMNKSLAAEWGRYGMRFNIIQPGPIKTKGAFSRLDPTGRFEKEMIDRIPCGRLGTMEELANLATFLCSDYASWINGAVIRFDGGEEVFLSGEFNSLKKVTKEEWDIIEGLIRKTKGS
With B1, the “stoichiometry N” value was 4.

The term stoichiometry N denotes the number of molecules, sites or subunits per partner or assembly.
